In the supplement of paper PMC10567573:

B1: ZNF649 (parent)
chain: LVAHQRYHTGKTPFVCPECGQPCS
B2: SMARCE1 (parent)
chain: YHNSPAYLAYINAKSRAEAALEEE

Variants of: B1
Test: protein stability index of a GFP-peptide fusion (GPS, HEK-293T) (PSI 1-6); higher = more stable
Conditions: c terminus: a fixed tail appended
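Further: lentivirally expressed fusions sorted by FACS into six bins by GFP to DsRed ratio, PSI derived from sequencing read proportions per bin multiplied by bin number.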

Variant	protein stability index
G20R	2.52
G20T	3.11
G20P	3.12
G20Q	3.14
G20K	2.86
G20S	3.13
G20N	3.25
G20V	2.47
G20W	2.55
G20D	3.48
G20A	3.06
G20L	2.59
G20F	2.85
G20Y	2.52
G20C	2.74
G20I	2.27
G20H	2.88
G20E	3.07
G20M	3.03
S24I	2.77
S24K	3.23
S24A	2.94
S24Q	3.12
S24T	3.36
S24D	3.76
S24P	3.57

Variant	protein stability index
S24N	2.97
S24M	2.67
S24H	3.23
S24F	3.71
S24R	2.68
S24C	3.13
S24W	3.08
S24G	3.54
S24Y	2.62
S24L	2.82
S24E	3.36
S24V	3.13
P22M	2.9
P22Y	3.84
P22A	3.58
P22K	3.6
P22S	3.53
P22N	3.77
P22W	2.38
P22G	3.35
P22V	3.5
P22I	3.25
P22F	3.1
P22T	3.33
P22C	3.85
P22E	3.75

Variant	protein stability index
P22H	3.41
P22Q	4.03
P22L	3.13
P22D	3.69
P22R	3.28
C23H	3.15
C23W	2.42
C23V	2.99
C23G	2.87
C23S	2.56
C23T	3.35
C23N	3.06
C23R	3.19
C23Y	2.31
C23F	2.49
C23M	2.54
C23K	3.12
C23E	3.09
C23Q	2.73
C23A	3.27
C23D	3.72
C23I	2.98
C23P	3.47
C23L	2.67
C19W	1.81
C19V	2.42

Variant	protein stability index
C19Y	2.08
C19T	3.26
C19P	3.21
C19Q	2.92
C19R	2.51
C19N	2.92
C19S	3.15
Q21L	2.74
Q21G	3.93
Q21S	2.86
Q21E	3.59
Q21I	2.58
Q21T	3.24
Q21V	3.5
Q21Y	2.77
Q21D	3.67
Q21W	2.97
Q21C	3.08
Q21A	3.06
Q21K	3.19
Q21R	2.62
Q21M	2.44
Q21N	2.66
Q21H	3.09
Q21P	2.9
Q21F	2.21

Variants of: B2
Test: as above
Conditions: c terminus: a fixed tail appended

Variant	protein stability index
N12R	2.04
N12F	2.28
N12V	2.44
N12E	1.93
N12S	1.58
N12G	1.65
N12P	3.69
N12Y	2.23
N12I	1.64
N12C	2.02
L21E	1.84
L21Y	1.94
L21P	3.6
L21I	3.51
L21G	2.15
L21T	1.59
L21A	2.26
L21V	2.67
L21F	3.43
L21R	2.1
E18S	2
E18A	2.58
E18I	3.18
E18T	1.82
E18P	1.88
E18H	2.33

Variant	protein stability index
E18D	2.4
E18R	1.97
E18V	2.76
E18C	2.46
E18F	2.37
L8I	3.09
L8Q	3.47
L8D	2.22
L8T	2.81
L8H	2.12
L8M	2.23
L8N	3.65
L8W	2.04
L8V	2.49
L8E	1.8
A6V	2.02
A6R	2.14
A6K	2.22
A6G	2.37
A6L	1.81
A6N	1.81
A6S	2.43
S4H	1.91
S4F	2.04
S4V	2.44
S4T	2.6

Variant	protein stability index
S4M	3.39
S4W	2.41
S4K	1.77
S4A	3.12
S4P	1.91
S4R	2.19
E24C	2.38
E24T	2.17
E24F	2.59
E24W	1.63
E24H	1.91
E24Y	1.71
E24M	2.55
N3P	1.55
N3E	2.22
N3D	1.89
N3Q	1.57
N3I	2.08
N3K	2.89
N3T	2.19
N3A	2.05
N3L	1.95
N3G	2.28
E22Q	1.91
E22K	1.86
E22D	2.21

Variant	protein stability index
E22W	2.29
E22P	2.73
E22T	2.36
E22A	2.7
E22S	2.41
E22C	2.17
E22L	4.41
E22I	2.59
E22F	2.04
E22H	2.83
P5I	2.05
P5M	2.65
P5A	2.76
P5G	3.04
P5D	2.15
P5Q	4.02
P5N	2.56
P5H	3.81
Y7W	2.31
Y7S	2.76
Y7M	2.4
Y7K	3
Y7C	2.26
Y7F	2.64
Y7R	2.76
Y7G	2.31

Variant	protein stability index
Y1R	4.86
Y1G	4.65
Y1I	4.78
Y1P	5.16
Y1T	5.26
Y1C	4.74
Y1H	4.6
Y1D	5.28
Y1M	5.08
Y1N	4.85
E23Y	1.58
E23T	3.01
E23D	1.54
E23V	2.44
E23I	2.79
E23L	1.59
E23C	2.79
E23P	2.58
E23F	2.31
E23R	1.82
E23G	3.34
K14E	2.03
K14Q	2.55
K14H	2.16
K14V	2.15
K14W	1.62

Variant	protein stability index
K14Y	2.63
K14C	2.14
K14I	2.81
K14D	1.16
K14P	1.95
K14S	1.51
A17Q	3.13
A17N	2.67
A17S	2.06
A17F	2.24
A17M	2.23
A17V	2.19
A17D	1.93
A17K	1.53
S15I	2.25
S15M	2.14
S15H	2.59
S15K	2.31
S15R	2.04
S15P	1.61
S15V	2.26
S15L	2.42
R16C	2.72
R16E	2.33
R16V	2.99
R16N	1.35

Variant	protein stability index
R16H	2.15
R16K	2.4
R16Q	2.17
R16S	2.43
R16Y	2.82
R16T	2.55
R16P	2.12
A20E	2.32
A20V	2.56
A20S	1.84
A20P	2.66
A20M	1.32
A20I	2.25
A20W	1.93
A20K	2.71
A20Q	1.79
A20H	2.51
Y10G	1.75
Y10F	2.32
Y10V	2.41
Y10P	2.11
Y10A	3.76
Y10L	2
Y10K	3.03
Y10C	2.25
Y10W	2.28

Variant	protein stability index
Y10I	3
Y10M	2.3
Y10Q	2.19
H2I	2.2
H2Q	1.7
H2D	4.99
H2C	2.12
H2T	1.7
H2E	4.87
H2A	2.37
I11D	3.19
I11C	1.66
I11W	2.35
I11S	2.99
I11L	2.24
I11K	2.59
I11M	2.35
I11P	3.06
I11N	2.59
A19Y	2.46
A19N	2.43
A19L	2.49
A19K	2.05
A19E	2.69
A19F	2.31
A19S	2.06

Variant	protein stability index
A19G	2.56
A19V	2.58
A19H	2.02
A9C	1.77
A9Y	1.74
A9R	1.96
A9N	2.39
A9H	2.51
A9G	2.19
A9S	2.96
A9V	2.29
A9L	1.5
A9M	1.38
A13Y	2.13
A13I	2.49
A13H	2.88
A13K	2.52
A13W	1.64
A13V	2.33
A13G	2.27
A13C	3.05
A13D	1.94
